Measurements taken from the DeepSol protein solubility set.

Experiment: soluble on expression in E. coli; label from the status in PepcDB or PDB records

Sequence | soluble on expression in E. coli
MEWPRFGRVVLKPFSAGLSEAEWKGLYETFRDPEVAEWNGSSPLRSPFWLFKRFVLAEARRKDRVAFVILDEKGEYLGTLELYDLTPEEATLGILIGRKDRWGQGYGTEAVRAALDYAFRVLGLRRVKLRTFAHNLRARRAFQKAGFREVGVVPGPRGREDVHMEVRREDLGPEA | soluble
MEYFNAGGGGSTGNGSTDPYAVIPQQFGNGGQQPQQQVFTDYQQDGSATDYETYQQQQQQYRAAQASQQSSSMYYQNQMTAAQANYFPIHSASEHDFLGPQQPPSATTSVSGAAGAPYQSASGGNKEFMMQHQQRRGNQSGQQQQNQPSQQNNQQQQNQGARQQHPQQMQQQQQSNQSAHFMHQQLQAVQQQQAQQMHHRLQGAPINPQQFMVPPPTMMQPQQMQQAQQQQAQQMHQMQIHHQQHPQMMQQHAQQGYHPHQQNQQHQAGQHQQSHHQSQNHNQHRNHNQSHSGPHHIPQNLMMPRCMLKDWPIRCVVEGKYHAVIIGPNGSTIKDIASSTRCRVDFVNLSKKERTVLGNNDRILTVHGVAEQATKAVARILDVIQSEAVKDDVNVGADTVLRMRAHNQLCGRLIGKAGSSIKEIMQKTGTNITVTKYIEPPGGISGLTANELLGLMERTIMVRGPSIEAVVQAEALISAKLKKCYESDSQLRAQSMQCPMPPMMMPPILPPGASSSAVSAPHFIPTPPGVLQIQPGTTNLRQVRMWVPDSMIGALIGAKGKNIKMIIRDTGASVKIEAPEEKTQREAEEAEKKRKLDETDSGCEGVASGDHPQEFLEDNATINSSDAIEEKPKPVSERMVTINGDDLQLLKAQSYVFSKIAETSSSLPSSGMDGDRSHMLRIRTEVSVPTRIIGRIIGKGGQNVRELQRITGAVVKIPEEERNGGEVYRHDDGLEEDMTMIRTIGNMYSTHNVQFRLAHLVNEYYRSGDHRNKSSDYKGGRPHSAPSSGQEKDGSALEKMDQLGTIAPISNSNRASPKSVSPPKSKSP | not soluble
MEYGNLRRQAASLKKSLFDQGYLDEQFCQVEDLQDEANPNFAEEVVSLFFKDSTRVMLNFEQAIEKHPKDFARWDTHMQQLKGSCSSIGASRVKNECTSFRNFCGEENAEGCTRSFQKVKREHAVLRQKWESYFQLLRQAGPAGTATRPAGK | not soluble
MEYKKILIRLLIAFAVLFSADFTYQSVEQTHQSHAAVNYYSKNQCTWWAFKRRAQVGKPVSNRWGNAKNWYYNARKSKYATGRTPRKFAVMQSTAGYYGHVAVVEQVYKNGSIKVSEYNFYRPLKYNTRVLSKKAARNFNYIYLEHHHHHH | not soluble
MEYREFDFWYYKIGNGDANLTCKMSYNPKSPIFTDFPDTVVHTVLEKLLPAERMVVRNVSKKLRNLFDERYRVIKNVYMQVQDEEAILFFENHEELEKTFSCNGNDGNEKYLEIALEKVAKFTKNHKLEEFEVHFDDEAGEKHRWGLYDDVSDMFKASKAVLNTKKFSIELLRPDDAKAAFSHFKPGNLEDIEIEYFCTGYKYPKYPRCPRYDDDSDDSFEDNMGMYEQLTELAHWQKAKKVKIGVDDSLDFSIEALFHLENFEISLNKFTKNDAIKIRDVLLQTAHFQSGIITFSKDPGGTNMLKVFNPKYSGGENGPIIYKTKDSRFEIGLGYSSIEFKRI | not soluble
MEYTSIADTGIEASRIGLGTWAIGGTMWGGTDEKTSIETIRAALDQGITLIDTAPAYGFGQSEEIVGKAIKEYMKRDQVILATKTALDWKNNQLFRHANRARIVEEVENSLKRLQTDYIDLYQVHWPDPLVPIEETAEVMKELYDAGKIRAIGVSNFSIEQMDTFRAVAPLHTIQPPYNLFEREMEESVLPYAKDNKITTLLYGSLCRGLLTGKMTEEYTFEGDDLRNHDPKFQKPRFKEYLSAVNQLDKLAKTRYGKSVIHLAVRWILDQPGADIALWGARKPGQLEALSEITGWTLNSEDQKDINTILENTISDPVGPEFMAPPTREEIPG | soluble
MFADTCGFMNRSPEHIFGSPEIDYSDVSTGYLEDALIESGERSKRRRLLFEDPSKSFNDDDSQNDWGLHESYSCLNSQFVTPHVNTGERISGVSYCQETISNVYESPDTSVSYDKIYVREKSPTEPSSSNCGNKNKRLITKLVYPFGLVKPGGRENDVTLNDINERILMAPSRPIRHPVGDFASRPCVSGRGPGLSGKAVVALTKIQTQGRGTITIIRTKG | soluble
MFDAKKLEQIAKQIHEAMPQPVKELGADVEQKVRQVIQGQLNKLDVVSREEFDVQTQVLLRTRQKLTELEQKMAELEAKLADK | not soluble
MFDIILEIVILLFNLLIQNLISLIKYALPYSLLPKKDLYRKKVLITGAGNGLGKLLAQKFAARGATLILWDINLQSVDELKNEIRGNQGEAHSYEVNLCDPGKIAQVGQQVINDIGKVDILVNNAGIATAKMILDSSENEINRSFDVNVKAHFYTVQQFLPAMLKDNNGHIVTIASAAGKMGSSGLADYSSTKHAAVGFHDSLVAEIMESEKNGVKTTLVCPYYVHTSMFDATGAATRFPWIFPILDTDYVVQKIFEAIETEQEFLVTPRAFYLVFAGIQILPYKAQAMVAQFFGLVQNLERFHK | not soluble
MFDLAERLSSNKSNESKLSHKLKTMLFYQTEECRSLVNESFRFDGKDEPKCVKNRDEEFRQIDLLNPPEVVIIELNASQDVVQDAQRLAHLLPSQVSVVIVGSEDAISTIRLLKEMGFYYLFWPVSKQECSDFMKHVLDNHEQHRGLMANRKSKRVAMVGVKGGVGTSLISSEVSRMLSFDKGVSTLLVDHNYHGGNLDIFMGLKQHQKRIVQKGTLISNIDGTYALGLIRKITPMLSMLAIDSDELNAQELKEYTLAVQEQALKNSSVMIEDHAHLIRNEDDIIKLLQQVDVLVLVFDATVSSLRDYNRLNQLVKKNNLDNQTRVISVLNSSRPSNSGSVSAEEIEKYSGQRATISIPYDDKAPQYVLEGLQIVKTKSAMALPLMNLVALILGEEPKQESRSFLSFFKKKG | not soluble
MFDSIRETIDYAVENNMSFADIMVKEEMELSGKSRDEVRAQMKQNLDVMRDAVIKGTTGDGVESVTGYTGHDAAKLRDYNETHHALSGYEMIDAVKGAIATNEVNAAMGIICATPTAGSSGTIPGALFKLEKTHDLTEEQMIDFLFTSALFGRVVANNASVAGATGGCQAEVGSASAMAAAAAVAIFGGSPEASGHAMALAISNLLGLVCDPVAGLVEIPCVMRNAIGSGNALISADLALAGIESRIPVDEVIEAMDKVGRNLPASLRETGLGGLAGTPTGEAIKRKIFGTAEDMVKNN | not soluble
MFERYQAGEQAVLVHLDFPDESSREDLSEFKMLVSSAGVQALTVVTGKRNTPHPRFFVGSGKAEEIRDAVHLVGANVVLFNHSLTPSQEKNIEALCECRVVDRTTLILDIFAQRARTHEGKLQVELAQLRHMSSRLIRGWTHLERQKGGIGLRGPGETQLETDRRLLRERMVNIRKRLGKVEVQRQQGRRARTRAELPTLSLVGYTNAGKSTLFNTLTQSDVYAADQLFATLDPTLRKIDLFGVGRVILADTVGFIRHLPHDLVAAFKATLTETREAELLLHVVDISDDRRSENIEQVEYVLKEIEANDVPQLIICNKIDNLDDIEPRIDRDDQGMPIRVWLSAQANIGTELLFTALAERLDIQVVNHQLSIPPSAGKLRGELYKLNCVTSETYDEQGHCHLEVNMPSREWERLISTKYSELVDYIEHLEHHHHHH | not soluble
MFFAIILLVHTILLPSTLLYQCATAKRPANQRKSQRSTKSRKSSRRSRRRNGRSRKSSRSGKSSRSSKSGRSSKSSNSTKTTGSKSSKSSRSQRSNKSNKMVTNPKGFSDRKIRAAILADQKAAADAVKSQKLSSNNSSEKQLNAHNDNKISYVNVRVIPHELIFPPIGGMKHVRVKNSTGKPIAYMAKCSDNILFRINPVYGIIDTDRDAQINILRENGAAKHDKLVIVTTVHHDANKTAQHTFSQLNQGIENPNYNVNVVPLLTQ | soluble
MFFDDTYLDYKARVSYSLFCAKDFNETAAFIKANRILMTSTELAAYMLKPENYKYAIIARIKNSMVGIVLFTDFESEVFINHLYVSPIHRFKGIGSNLLKELKAFMGQRTVSYIDTSNNYMPWMEVLDVSKKAAVINQLGSFYKCSK | not soluble
MFFRSKKTHFLEVDKFWTPEKIVRSSEVKRINKNTEISTQESTSTSTEYQFATLEDFQNAMAEKDQNIKKLKEEVEKLIDEQEDEIILAEMQFEIFQIKAETEARRLKKLLIMRNEDFSILKTKYEDLQKQFYDLSPYPVNGYGGILIGDETPKQEKLMDQLLDKLKVLNDGDYYDIFHLLETIDKIIVTFSLYFKDPILITKKMEDNKQIIQKLEDEVDYLTKNLESLNPSQLVTSLENKDDYLLVTVEFQKRKNILFSELKKKNEEIKMLQESFNVYQKDSIEKVMEKFLELQHQNLTVFSVDDTNSISTELNNDRNVAKNDKSEGVESLMLENFNNSLKIALNSVKREISKQNVTIKTDEDMIKDMKKTIDSNENMIKMLADELSWKTKDCQVKVSALENQIFDKNDEIVKLKSHVSTESGNSPKLERNVRELTLKISSETSSQGTSRTYPHLEQEILTFHSEKISDPSEEANQEVREFPLEQTLEKLKLEQTESLVAILEQPGGLKTMRNDPQWLQVVDHFCDYVRKIEKLEENVKEEQMNTEMIMKERTREITELYYQKRVLEKKISEQFKEIQQVKSEISRVYEANIQEIQKSFDIKLKLKDQIIGELEAVDEMSSNHTELSDGWSDLDIVQNTEELQ | not soluble
MFGISFSELLLVGLVALLVLGPERLPGAARTAGLWIGRLKRSFNTIKQEVEREIGADEIRRQLHNEHILSMEREAQKLLAPLTGQNPPQETPPPAAESPAPSVPTPPPTSTPAVPPADAAAPPAVAASTPPSPPSETPRNPLEHHHHHH | not soluble
MFGMSVFHSVLERLKAEQAEELTNEARGGWRGTVIGAAPGFIAESSAHAWASRGAVEQAYRALAADERSEPFSMPDYLTRTSLAEVASELALGEAETALTLAAKRRRFAAANHPDRLPVEARVNATLRMKLANMLIDEALRRIEKPTVTG | not soluble
MFHLVDFQVTIAEILIIIMRTFRIAIWNLDVIISSIVRQLFKPLTKKNYSELDDEEPMELDYP | soluble
MFISVVIPTYDRQPILEKCLRALEAQQLSASTVINEYEIVLVDDGSTDGTLDWLATHKEEFPHVRWFEQDHAGPAAARNLGVEKARGDIIIFIDSDLVVLDNFLQAHADALLQGQEKLGSDRFFTYGAVINTCNFDNPTAEPYKITDFSAAFFATGNVAIPKHWLEQAGLFDTGFQLYGWEDLELGVRLKNLGLQLIKCPAAVGYHWHPPFNLEQVPNLIEKEIQRGRMGVLFYKKHPTWEVRMMIQMTWLHRLLWGILSLNGALNENTMAPLLQWLIKSGKPQLALEIARIFLNWYNVKGVYQAYSQMQKVSLEHHHHHH | soluble
MFKRVLIANRGEIAVRAIRACRELGLKTVAIYSEADKNSLHVELADEAICIGPPDPSKSYLDIPRIMSALEVSKADAVYPGYGFLSENPKFAEIVEKSGAKFIGPRSEVLAKIGDKVLAKKVAKEVGLPLVPGSDEPLEFSEAVKLASKIGYPVVIKAAAGGGGRGIRIIRDEKELREKFPLAKKEAESAFGDGRLYIEKYVINPKHIEFQVIADEHGNVYVLGERECSIQRRHQKLIEEAPSVSVSEEKRKEISEKVAEFCKRLGYTSAGTVEFLMDEEGNFYFMEMNGRIQVEHPVTEMVTGVDIVKLQLIAAMGEEIKLEKVETNGFAIEFRINAEDPVTFIPSPGQVEKLILPGGPGVRVDTHLYQGYTVPPYYDSLLAKIIVWGNTRQEAIARGKRALGELKIEGKGLKVNTEFHLRVLDQKEFIEGKHDITFVERIMV | soluble
